Values joined by “and” are separate entries in the source; they are usually repeats but may differ in a detail not shown here. Identical values can stand only once.
Assays:
[1] = biological target: SARS-CoV-2 HexaPro spike (SARS-CoV-2) (UniProt P0DTC2)
[2] = biological target: wild-type SARS-CoV-2 spike without stabilizing modifications (on cells or pseudovirus) (SARS-CoV-2) (UniProt P0DTC2); experiment: cell-based or functional assay
[3] = biological target: SARS-CoV spike without stabilizing modifications on pseudovirus (SARS-CoV) (UniProt P59594); experiment: cell-based or functional assay

Substance | Kd [1] | Pseudovirus IC50 [2] [nM] | Pseudovirus IC50 [3] [nM]
antibody S309 (Pinto et al., 2020) | 18 nM and 24 nM | 1 | 0.5
isotype control antibody with irrelevant binding | – | > 5000 | > 5000

Reference: patent US20240294611A1
